{"source": "paper PMC5100564", "about": "(Nucleic Acids Research, 2016)", "biological_target": "T1, recombinant GST-Scd6 (S. cerevisiae, UniProt P45978 1-349)", "T1 sequence (looked up)": "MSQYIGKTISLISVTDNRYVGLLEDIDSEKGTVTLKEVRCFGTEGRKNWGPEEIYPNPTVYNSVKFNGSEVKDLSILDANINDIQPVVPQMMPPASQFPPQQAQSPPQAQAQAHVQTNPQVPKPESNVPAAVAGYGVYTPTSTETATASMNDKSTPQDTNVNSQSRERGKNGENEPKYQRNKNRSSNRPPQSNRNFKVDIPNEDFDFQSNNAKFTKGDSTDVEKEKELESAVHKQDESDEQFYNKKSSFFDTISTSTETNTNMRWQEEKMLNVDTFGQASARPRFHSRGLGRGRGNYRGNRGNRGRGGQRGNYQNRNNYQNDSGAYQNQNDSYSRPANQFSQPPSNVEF", "assay": "pull-down"}
{"binder": "recombinant purified His-Hmt1 (enzyme, S. cerevisiae, UniProt P38074 1-348, looked up) MSKTAVKDSATEKTKLSESEQHYFNSYDHYGIHEEMLQDTVRTLSYRNAIIQNKDLFKDKIVLDVGCGTGILSMFAAKHGAKHVIGVDMSSIIEMAKELVELNGFSDKITLLRGKLEDVHLPFPKVDIIISEWMGYFLLYESMMDTVLYARDHYLVEGGLIFPDKCSIHLAGLEDSQYKDEKLNYWQDVYGFDYSPFVPLVLHEPIVDTVERNNVNTTSDKLIEFDLNTVKISDLAFKSNFKLTAKRQDMINGIVTWFDIVFPAPKGKRPVEFSTGPHAPYTHWKQTIFYFPDDLDAETGDTIEGELVCSPNEKNNRDLNIKISYKFESNGIDGNSRSRKNEGSYLMH", "values": [{"measurement": "binding result", "result": "binds"}]}
